One experiment deals with T1, control GEF (GEF720) (Homo sapiens, UniProt O94827).
T1 construct: expressed in transfected cells; host or cells: yeast strain TAT7
T1 sequence (O94827 1-1006): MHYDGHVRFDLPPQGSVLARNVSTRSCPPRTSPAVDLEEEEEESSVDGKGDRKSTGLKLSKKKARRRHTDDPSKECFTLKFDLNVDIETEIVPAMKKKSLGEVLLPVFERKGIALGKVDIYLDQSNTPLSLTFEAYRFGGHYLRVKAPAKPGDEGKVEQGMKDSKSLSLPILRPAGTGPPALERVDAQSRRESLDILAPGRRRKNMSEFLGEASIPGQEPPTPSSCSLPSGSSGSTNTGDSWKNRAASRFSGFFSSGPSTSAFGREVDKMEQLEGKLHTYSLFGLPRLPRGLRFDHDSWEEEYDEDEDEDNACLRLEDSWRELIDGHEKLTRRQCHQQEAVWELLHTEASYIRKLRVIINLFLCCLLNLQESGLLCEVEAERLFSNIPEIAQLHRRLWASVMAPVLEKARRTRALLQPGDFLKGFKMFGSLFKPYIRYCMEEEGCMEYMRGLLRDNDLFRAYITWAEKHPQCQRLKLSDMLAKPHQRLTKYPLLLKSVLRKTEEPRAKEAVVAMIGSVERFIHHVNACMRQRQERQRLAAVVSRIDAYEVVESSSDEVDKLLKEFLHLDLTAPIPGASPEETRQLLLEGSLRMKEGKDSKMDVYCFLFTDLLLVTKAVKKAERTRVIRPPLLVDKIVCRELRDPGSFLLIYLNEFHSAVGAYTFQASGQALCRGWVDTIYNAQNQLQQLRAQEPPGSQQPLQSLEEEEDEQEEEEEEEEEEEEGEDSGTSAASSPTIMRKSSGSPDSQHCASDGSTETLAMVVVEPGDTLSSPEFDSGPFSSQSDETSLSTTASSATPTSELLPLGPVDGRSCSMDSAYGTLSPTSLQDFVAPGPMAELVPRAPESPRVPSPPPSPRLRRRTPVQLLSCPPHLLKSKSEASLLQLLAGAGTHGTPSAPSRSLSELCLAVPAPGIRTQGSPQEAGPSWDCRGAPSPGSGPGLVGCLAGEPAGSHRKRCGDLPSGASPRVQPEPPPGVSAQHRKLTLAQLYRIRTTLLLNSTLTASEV
Kind of experiment: Yeast Exchange Assay (YEA), RhoA activation. It counts as cell-based. To be noted: yeast strain TAT7, reporter gene. An excerpt: The wild type GTPase is fused to the LexA DNA binding domain (Matchmaker GAL4 two-hybrid, Clontech Laboratories, Inc., USA) and the effector to the […] (Matchmaker GAL4 two-hybrid, Clontech, Inc., USA). Under these conditions, no binding occurs in the TAT7 strain (De Toledo et al., 2000). Upon addition of a third plasmid expressing the GEF, the GTPase gets activated and binds to its effector, thus leading to the transactivation of the reporter gene LacZ.
TrioGEFD2, a control GEF (GEF720) or an empty vector (−GEF: corresponds to a vector without GEF) were introduced into the YEA system and analysed for their ability to transactivate the reporter gene in absence (left panel) or in the presence (right panel) of TRIPα.
In order to better characterise the effect of TRIAPα on the Trio full length RhoGEF activity, the yeast exchange assay (YEA) was used, which is a quick and quantitative test derived from the classical two-hybrid system allowing to measure Rho-GEF activity and specificity (De Toledo et al., 2000). This functional assay is based on the fact that the GTPase binds to its effector only if it is activated by a RhoGEF. Briefly, yeasts are transformed with the GTPase fused to the LexA binding domain (LexA), and its effector to the GAL-4 Activating Domain (GAD), and with the adequate Rho-GEF partner in the yeast strain TAT7 (FIG. 7). […]
For orientation: A reporter such as luciferase makes a cellular process visible.

In a further experiment the target is T2, TrioDH2 (a.a. 1848-2096) (Homo sapiens, UniProt O75962).
T2 construct: TrioDH2 (a.a. 1848-2096); expressed in transfected cells; host or cells: yeast
As to the kind of experiment: Binding specificity of aptamers in yeast. To be noted: growth on selective medium. An excerpt: Trx represents the thioredoxin protein with no inserted peptide.
In order to identify specific inhibitors of TrioGEFD2, a recently developed strategy was used, this strategy being derived from the yeast two hybrid system, where the cDNA library of preys has been replaced by a combinatorial library of short peptides (20 amino acids) in fusion with the bacterial protein thioredoxin A (Colas et al., 1996). This strategy has been successfully used to isolate specific inhibitors of the cyclin-dependent kinases (Cdks), the cell cycle transcription factor E2F, or the viral HPV16 E6 oncoprotein and HBEV core protein (Colas et al., 1996; Butz et al., 2001; Fabrizzio et al., 1999; Geyer et al., 2000). The TrioGEFD2 bait was constructed as follows: plasmid pMTHATrio1848-2298 (Bellanger et al., 1998) was digested with EcoRI/XhoI and the insert cloned in pEG202EcoRI/XhoI to generate the bait pEG202TroGEFD2. Yeast strain EGY048 (Colas et al., 1996) was transformed with pEG202TrioGEFD2 and subsequently with the library of Thioredoxin constrained aptamers according to standard procedures (Ito et al., 1983). After transformation, cells were allowed to recover for 4 hours in galactose containing medium before plating on selective galactose medium. Of the 2×10^6 screened colonies, those growing in the selective medium were recovered and retested for interaction. […]

Entries after “also recorded” stand apart in the source; their conditions may differ.

In the case of “AREGADGAICGYNLATLVMLGPSERVFCPLCEPCSSDIYELM [TRIPα, 42-amino acid peptide corresponding to the variable region of TRIAPα]”, the “Effect on control GEF (GEF720) in the YEA system” value with control GEF (GEF720) is “the control GEF is unaffected”.

B1: TRIAPα: aptamer of 154 amino acids: variable region of 42 amino acids inserted into the thioredoxin protein; tested as GST fusion (protein)
chain: MSDKIIHLTDDSFDTDVLKADGAILVDFWAEWCGPAREGADGAICGYNLATLVMLGPSERVFCPLCEPCSSDIYELMGPCKMIAPILDEIADEYQGKLTVAKLNIDQNPGTAPKYGIRGIPTLLLFKNGEVASATKVGALSKGQLKEFLDANLA
On to B1, for which the “Binding to the DH2 catalytic domain in yeast” value with TrioDH2 (a.a. 1848-2096) is listed as “also binds to the DH2 catalytic domain; also recorded: interacted with the DH2 catalytic domain alone”.

Values taken from patent US8088892B2, “Inhibitors of proteins from the Rho-GEF family” (Centre National de la Recherche Scientifique (C.N.R.S.), priority 2002, dated 2012).
